Target: CD87 (UniProt Q03405)
Chain of UniProt Q03405 (Q03405 whole entry, looked up): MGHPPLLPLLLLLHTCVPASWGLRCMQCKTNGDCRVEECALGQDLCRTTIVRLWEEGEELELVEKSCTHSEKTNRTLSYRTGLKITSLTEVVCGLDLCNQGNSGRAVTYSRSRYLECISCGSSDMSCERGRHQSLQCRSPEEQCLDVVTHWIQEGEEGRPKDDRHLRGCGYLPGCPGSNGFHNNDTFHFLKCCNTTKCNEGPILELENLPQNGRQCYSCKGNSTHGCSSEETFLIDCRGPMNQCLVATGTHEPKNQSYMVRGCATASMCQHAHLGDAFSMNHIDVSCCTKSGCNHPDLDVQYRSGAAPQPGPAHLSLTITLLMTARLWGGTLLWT

## high molecular weight urokinase-type plasminogen activator (HMW-uPA)
  anti-HIV activity (p17) of gel filtration fractions containing HMW-uPA (Nos. 15-18), co-culture assay: also were found to have anti-HIV activity (p17), thought that was weaker than ATF
